The text below walks through data of patent US20040013674A1 (APOXIS, published 2004).

In assay [1] the target is T1, N-terminally FLAG-tagged full length human TACI, expressed on 293EBNA cells (plasmid pJST552) (human, UniProt O14836 1-293).
T1 construct: also called flag-tagged full length TACI; TACI transfected cells; not shown: N-terminal FLAG tag (and any leader) of the pJST552 insert
T1 sequence: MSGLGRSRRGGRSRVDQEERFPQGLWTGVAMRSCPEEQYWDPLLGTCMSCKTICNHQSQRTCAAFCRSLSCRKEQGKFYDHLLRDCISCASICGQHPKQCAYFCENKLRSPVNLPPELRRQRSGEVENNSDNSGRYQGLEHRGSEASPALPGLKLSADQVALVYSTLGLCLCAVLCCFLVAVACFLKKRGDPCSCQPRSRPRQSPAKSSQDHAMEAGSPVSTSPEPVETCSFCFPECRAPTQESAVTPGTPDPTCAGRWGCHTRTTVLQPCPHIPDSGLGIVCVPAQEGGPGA
Nature of the assay: FACS on 293EBNA cells transfected with pJST552; rabbit anti-murine APRIL and donkey anti-rabbit-PE. The procedure: FIG. 8 is a schematic representation of purified myc-tagged murine APRIL binding to TACI transfected cells. 293EBNA cells were transfected with expression plasmid pJST552 that expressed FLAG-tagged full length human TACI. Cells were harvested 48 hours later using 5 mM EDTA and stained with myc-tagged murine APRIL at various concentrations. No protein control was stained with detection reagents (rabbit anti-murine APRIL and donkey anti-rabbit-PE (Jackson Immnunoresearch)). Staining in FL1 of protein encoded by the cotransfected GFP expression plasmid illustrates expression efficiency.
293EBNA cells were co-transfected with a plasmids expressing full length N-terminally FLAG tagged human TACI (pJST552)(see FIG. 2), and a GFP marker, (AN050). Transfections were performed using Lipofectamine 2000 (LifeTechnologies) according to manufacturer's conditions. Transfection media was DMEM supplemented with 10% FBS, 4 mM glutamine, and 50 μM Z-VAD (BACHEM Bioscience Inc.) Cells were harvested with PBS supplemented with 5 mM EDTA at 24 hours post-transfection. Cells were washed in FACS buffer (PBS-10% FBS-0.02% NaN₃) and resuspended at a density of 5×10⁶ cells/mL. […] The samples were analyzed by FACS and plotted (FIG. 8). Cell gate analyzed is shown as R1. […]

For assay [2], the target named is T2, FLAG-tagged soluble muBAFF (murine, UniProt Q9WU72 127-309, limits assumed).
T2 construct: not shown: FLAG tag
T2 sequence (Q9WU72 127-309 limits assumed): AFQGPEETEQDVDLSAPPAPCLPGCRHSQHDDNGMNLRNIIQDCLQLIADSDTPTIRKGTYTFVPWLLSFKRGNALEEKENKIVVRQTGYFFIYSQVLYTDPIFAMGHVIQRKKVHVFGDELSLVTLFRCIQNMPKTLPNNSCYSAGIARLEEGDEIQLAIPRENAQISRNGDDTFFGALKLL
Kind of assay: co-immunoprecipitation on protein A-Sepharose, anti-FLAG M2 Western blot. The procedure:
250 μl of Optimem containing hTACI(1-160)-Ig was mixed with various FLAG ligands of the TNF family. Some of the ligands were in Optimem while others were anti-FLAG (mAb M2)-purified. The common characteristic was that the amount used was empirically the same (500 ng for purified ligands, i.e. hBAFF, muBAFF, TRAIL, FasL, EDA). Ligands were produced in bacteria (HBAFF, TRAIL) or transiently expressed in 293 EBNA cells (all others). Control Receptors-Fc were mostly used as Optimem supernates, except TNFR1, OX40, LTBR, which were purified over protein-A columns. 1 μg of purified receptors was used. Receptor-Fc proteins (about 1 μg) were mixed with FLAG-ligands (about 500 ng). Volume was adjusted to 1.2 ml with PBS and 5 μl of protein A-Sepharose was added. Incubation was performed for 1 h at 4° C. on a wheel. Beads were harvested by centrifugation and loaded onto a minicolumn (yellow tips with 1 mm diameter frit). Washes were performed by applying vacuum at the bottom of the column to aspirate medium and 2 times 400 μl PBS washes. The dried beads were eluted with 20 μl of Citrate-NaOH pH 2.7 and the eluate was neutralized with 6 μl of 1M Tris-HCl pH 9.0. 10 μl 3x sample buffer plus DTT was added, the sample was boiled and 22 μl loaded for Western blot analysis. […] ECL was used to illuminate the signal. […]
(In general: In western blotting, separated proteins are transferred to a membrane and probed.)

B1: myc-tagged murine APRIL (A88), expressed in Pichia pastoris (plasmid pCMM276) (ligand)
chain: EQKLISEEDLNGGGGSKELAVLTQKHKKKHSVLHLVPVNITSKDSDVTEVMWQPVLRRGRGLEAQGDIVRVWDTGIYLLYSQVLFHDVTFTMGQVVSREGQGRRETLFRCIRSMPSDPDRAYNSCYSAGVFHLHQGDIITVKIPRANAKLSLSPHGTFLGFVKL
modifications: glycosylated (as printed in paragraph 69)
notes: also called myc-muAPRIL; Myc-Murine APRIL A88
Consider B1, for which the binding result in assay [1] is “binds”.

B2: human TACI(1-160)-Ig fusion protein (plasmid PS882) (Fc fusion)
chain: MSGLGRSRRGGRSRVDQEERFPQGLWTGVAMRSCPEEQYWDPLLGTCMSCKTICNHQSQRTCAAFCRSLSCRKEQGKFYDHLLRDCISCASICGQHPKQCAYFCENKLRSPVNLPPELRRQRSGEVENNSDNSGRYQGLEHRGSEASPALPGLKLSADQV
notes: Used as conditioned medium (Optimem) of 293 cells; also called hTACI(1-160)-Ig; soluble hTACI(1-160)-Ig; not shown: human IgG Fc
Regarding B2, in assay [2], the binding result is recorded as “no binding (tested: 500 ng purified ligand)”.
